# Assay results taken from patent US20240101708A1 (Genentech, published 2024).
# T1: recombinant human ZNRF3 extracellular domain (human, UniProt Q9ULT6 56-219)
# T1 construct: extracellular domain; also called huZNRF3; human ZNRF3 ECD
# T1 sequence (looked up): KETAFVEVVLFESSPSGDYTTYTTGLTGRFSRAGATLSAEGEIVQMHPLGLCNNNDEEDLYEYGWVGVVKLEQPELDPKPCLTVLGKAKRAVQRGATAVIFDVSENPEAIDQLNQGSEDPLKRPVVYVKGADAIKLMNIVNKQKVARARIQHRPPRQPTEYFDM
# T2: recombinant human RNF43 extracellular domain (human, UniProt Q68DV7 24-197)
# T2 construct: extracellular domain; also called huRNF43; human RNF43 ECD
# T2 sequence (looked up): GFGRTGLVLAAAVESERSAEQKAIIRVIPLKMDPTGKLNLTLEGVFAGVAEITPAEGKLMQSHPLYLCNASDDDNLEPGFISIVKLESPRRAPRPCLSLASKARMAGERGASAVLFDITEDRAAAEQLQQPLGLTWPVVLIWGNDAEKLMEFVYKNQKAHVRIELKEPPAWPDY
# Molecular target: T1, recombinant human ZNRF3 extracellular …
# Assay: SPR Biacore 8K; antibody captured on Protein A; ZNRF3 ECD analyte; 25 C
# Protocol: Antibodies were screened for binding to recombinant human RNF43 and ZNRF3 ECDs using a Biacore® 8 k instrument (GE Life Sciences). Briefly, antibodies diluted to 1 μg/ml in 1×HBSP buffer (Cytiva, BR100368) were captured on a Sensor Chip Protein A (GE Life Sciences) using a flow rate of 10 μl/minute and a contact time of 60 seconds. Binding of recombinant human RNF43 and ZNRF3 extracellular domain to the captured antibodies was analyzed at 25° C. using a single cycle kinetics method with a flow rate of 30 μl/minute, a contact time of 180 seconds and a dissociation time of 600 seconds. The concentration of recombinant human RNF43 and ZNRF3 extracellular domain in the single cycle kinetics were 0, 0.8, 4, 20, and 100 nM. Between cycles, the chip was regenerated using 10 mM Glycine HCl pH 1.5 injected for 30 seconds at 30 μl/minute. Data were evaluated using Biacore 8K Evaluation software (GE Life Sciences). Kinetic constants were obtained using a 1:1 binding model with the parameter RI set to zero. Cell surface ligase antibodies with sub-nanomolar affinities may provide advantages in certain instances, for example, in the degradation efficiency which is correlated with the durability of the ternary complex as shown in FIG. 5D.
row,Binder,Kd
1,"ZNRF3-333 (antibody, V domains shown, Rabbit clone; VH/VL only) VH: QSLEESGGGLVQPEGSLTLTCTASGIDFSARSYMCWVRQAPGKGLEWVACIYTGSSGSTYYANWAKGRFTISKTSSTTVTLRMTSLTAADTASYFCARGAYVGYGFAAYFTLWGPGTLVTVSS VL: DIVMTQTPASVEAAVGGTVTINCQASQSISSYLAWYQQKPGQPPKLLIYYASNLESGVPSRFKGSGSGTQFTLTISDLECADAATYYCQAYYSSITGWAFGGGTEVVVK",8.7 nM
2,"ZNRF3-101 (antibody, V domains shown, Rat clone; VH/VL only) VH: QVQLKESGPGLVQPTQTLSLTCTVSGFSLTSSTVSWVRQPPGKGLEWIAAISSAENTYYNSGLKSRLSISRDTSKSQVFLKMNSLQTEDTAMYFCAGGRILETLFDSWGQGVMVTVSS VL: DIVLTQSPALAVSLGQRATISCKTNQNVDFYGKTYMHWYQQKRGQQPKLLIYLASNLASGIPARFSGRGSGTDFTLTIDPVATDDTATYYCQQTRSLPPTFGAGTKLELK",0.07 nM
3,"ZNRF3-171 (antibody, V domains shown, Rat clone; VH/VL only) VH: QVQLHQSGTELARPGTSVKLSCKASGYTFSRFYINWVKKRPGQGLEWIGYIDPGNGGTFHSEKFKDKASLTADTSSSTAYMVLGSLAPEDSAFYFCVRGYYSSYDWFAYWGQGTLVTVSS VL: DIQLTQSPSSMSASLGDRVSLTCQSSQGIGNYLSWYQHKPGEPPKPILYYATNLADGVPSRFSGSRSGSDYSLTISSLESEDTAIYYCLQYDEYPYTFGPGTKLELR",1.01 nM

# Molecular target: T2, recombinant human RNF43 extracellular …
# Assay: SPR Biacore 8K; antibody captured on Protein A; RNF43 ECD analyte; 25 C
Binder,Kd,binding result
"RNF43-13 (antibody, V domains shown, Rabbit clone; VH/VL only) VH: QSLEESGGGLVKPGGTLTLTCKASGIDFSGYYYMCWVRQAPGKGLEWIACIYTTSGSAWYASWAKGRFTISITTSLNTVTLQMTSLTATDTATYFCVRYANYGGYNYPEFGVLWGPGTLVTVSS VL: AYDMTQTPASVEVAVGATVTIKCQASEDIYNLLAWYQQKPGQPPKLLIYRASKLASGVPSRFSGSGSGTEFTLTISSVQCDDAATYYCQQGYSISNVENPFGGGTEVVVK",99.6 nM,
"RNF43-2 (antibody, V domains shown, Rabbit clone; VH/VL only) VH: QSLEESGGDLVKPGASLTLTCTASGFSFSSSYYMCWVRQAPGKGLELIGCGFTGRHYTYYASWAKGRFTISKSSSTTVTLQMTSLTAADTATYFCARKSGSDYDYFDLWGPGTLVTVSS VL: AYDMTQTPASVEAVVGGTVTIKCQASQSINSWLSWYQQKPGQRPKLLIYRASTLASGVSSRFKGSGSGTEFTLTISDLECADAATYYCQQGYVSSNINNVFGGGTEVVVK",,no binding
"RNF43-128 (antibody, V domains shown, Rat clone; VH/VL only) VH: EVQLQESGPGLVKPSQSLSLTCSVTGFSITSHYKWNWIRKFPRNKLEWMGYIDNSGSTNYIPSLKSRISITRDTSKNQFFLQVNSVTTEDTATYYCARDCLDWGQGVMVTVSS VL: DVVLTQTPPTLSATIGQSVSISCRSSQSLLHSNGNTYLHWLIQRPGQSPQLLIYLVSRLESGVPNRFSGSGSGTDFSVKISGVEAEDLGIYYCVQDTHTPWTFGGGTKLELK",,no binding
"RNF43-6 (antibody, V domains shown, Rabbit clone; VH/VL only) VH: QSLEESGGRLVTPGTPLTLTCTVSGFSLSAFGMNWVRQAPGKGLEWIGYISAGGSAVYPNWAEGRFTISKASTTVTLKMTSLTTEDTATYFCVRGGYVGSTNSLWGPGTLVTVSS VL: AAVLTQTPSPVSAAVGGTVSISCQSSKSVHNNNWLAWYQQKPGQPPKLLIYGASTLASGVPSRFKGSGSGTQFTLTISDVQCDDAATYYCSGGYSSIIDNGFGGGTDVVVE",10.3 nM,
"RNF43-23 (antibody, V domains shown, Rabbit clone; VH/VL only) VH: QEQVVESGGGLVQPEGSLTLTCKGSGFDFSGNVLCWVRQAPGKGLEWIGCIATGIGSTAYASWAKGRFTITRGTSLNTVDLKMTSLTAADTATYFCARYVSGSEYYNFWGPGTLVTVSS VL: AYDMTQTPASVEVAVGGTVTIKCQASQSISSFLAWYQQKPGQPPMLLIYKASTLASGVPSRFKGSGSGTQFTLTISGVECADAATYYCQQGYSWNGVDNTFGGGTEVVVK",85 nM,
"RNF43-17 (antibody, V domains shown, Rabbit clone; VH/VL only) V domain 1: QSVEESGGRLVTPGTPLTLTCTGSGFSLSNYAMGWVRQAPGKGLEYIGIIYASGSTWYASWAKGRFTISKTSTTVDLKITSPATEDTATYFCCRDATTTYDRLDLWGQGTLITVSS V domain 2: AFELTQTPSSVEAAVGGTVTIKCQASQSISKWLAWYQQKPGQPPKLLIYRASTLPSGVPSRFKGSGSGTEFTLTISGVECADAATYYCQQGYSVTNLDEAFGGGTEVVVK",6.7 nM,
"RNF43-9 (antibody, V domains shown, Rabbit clone; VH/VL only) VH: QSLEESGGDLVQPEGSLTLTCTASGFSFSSSCYMCWVRQAPGKGLEWIACINTGSSGSTYYASWAKGRFTISKTSSTTVTLQMTILTAADTATYFCARGYAGYTGYGQFNLWGPGTLVTVSS VL: QIVMTQTPASVEAAVGGTVTIKCQASQSISNYLAWYQQKPGQRPKLLIYDASKLASGVPSRFKGSGSGTQFTLTISGVECADAATYYCQQGYTMNNVDNAFGGGTEVVVK",1.8 nM,
"RNF43-22 (antibody, V domains shown, Rabbit clone; VH/VL only) VH: QEQLEESGGDLVKPGASLTLTCTASGFSVSNSYYMCWVRQAPGKGLEWIACINTGSSGSTYYASWAKGRFTISKTSSTTVTLQMTTLTAADTATYFCARGYAGYAGYGQFNLWGPGTLVTVSS VL: AYDMTQTPASVEVAVGGTVTIKCQASQSISSYLAWYQQKPGQRPKVLIYDVSKLASGVPSRFKGSGSGTQFTLTISGVECADAATYYCQQGYSMSNVDNTFGGGTEVVVK",0.5 nM,
"RNF43-5 (antibody, V domains shown, Rabbit clone; VH/VL only) VH: QSVEESGGRLVTPGTPLTLTCTVSGFSLNTYAMGWVRQAPGKGLEWIGTIGSSGSTYYATWAKGRFTVSKTSTTVDLKITSPTTEDTATYFCVRGADGLNYYPIWGPGTLVTVSL VL: AQVLTQTPSSVSAAVGGTVTINCQASQSVYNNKNLAWYQQKPGQPPKLLIYDASDLASGVSSRFKGSGSGTQFTLTISGVQCDDAATYYCQGEFNCDKGDCNAFGGGTEVVVK",1.1 nM,
"RNF43-16 (antibody, V domains shown, Rabbit clone; VH/VL only) VH: QSVEESGGRLVTPGTPLTLTCTVSGFFLSSYYMSWVRQAPGKGLEWIGYIYAGSGSTYYASWAKGRFTISKTSTTVDLKITSPTTEDTATYFCVRDINGGDYGMDPWGPGTLVTVSS VL: DIVMTQTPASVSAAVGGTVTIKCQASESIDSGLAWYQQKPGQRPKLLIYAASNLASGVSSRFKGSGSGTEYSLTISGVQCDDAATYYCQCTYGSVTSNTYGIAFGGGTEVVVK",37.8 nM,
"RNF43-15 (antibody, V domains shown, Rabbit clone; VH/VL only) VH: QEQLEESGGDLVKPGASLTLTCTASRFSFSNDDVICWVRQAPGKGLEWIGCIATINGNTAYATWAKGRFTSSKTSSTTVTLQMTRLTAADTATYFCARWDTGSEHVTLWGPGTLVTVSS VL: AYDMTQTPASVEVAVGGTVTIKCQASQSISSYLAWYQQKPGQPPKPLIYEASKLASGVPSRFSGSGSGTQFTLTISGVQCADAATYYCQQGASWSNVDNVFGGGTEVVVK",8 nM,
"RNF43-14 (antibody, V domains shown, Rabbit clone; VH/VL only) VH: QSVEESGGRLVTPGTPLTLTCTVSGIDLSSYAMGWVRQAPGKGLEYIGFIYASGSTYYASWAKGRFTISKTSTTVDLKITSPTTEDTATYFCARDSSETINYFNIWGPGTLVTVSL VL: NIVMTQTPSPVSGAVGGTVTIKCQASQSISNWLAWYQQKPGQPPKVLIYRASTLASGVSSRFKGSGSGTEFTLTISDLECADAATYYCQQGYYISYLDNAFGGGTEVVVK",0.8 nM,
"RNF43-11 (antibody, V domains shown, Rabbit clone; VH/VL only) VH: QEQLVESGGGLVQPEGSLTLTCKASGFDFSSNVMCWVRQAPGKGLEWIGCIYTGSSGSTYYASWAKGRFTITRSTSLNTVTLQMTSLTAADTATYFCARYVSGGEYYNLWGPGTLVTVSS VL: ALVMTQTPASVEAAVGGTVTINCQASESISNWLAWYQQKPGQPPKLLIYKASTLASGVSSRFKGSGSGTQFTLTISDLECADAATYYCQQGSSWINIEDVFGGGTEVVVK",27.7 nM,
"RNF43-20 (antibody, V domains shown, Rabbit clone; VH/VL only) VH: REQLVESGGGLVQPEGSLTLTCKASGFDFSSNVMCWVRQAPGKGLEWIGCIYTGSGSTAYASWAKGRFTITRSTSLNTVTLQMTSLTAADTATYFCARYVSGGEYYNLWGPGTLVTVSS VL: ALVMTQTPASVEAAVGGTVTIKCQASQSISSYLNWYQQKPGQPPKLLIYKASTLASGVSSRFKGSGSGTQFTLTISDLECADAATYYCQQGSSWNSIENIFGGGTEVVVK",,no binding
"RNF43-21 (antibody, V domains shown, Rabbit clone; VH/VL only) VH: QSLEESGGDLVKPGASLTLTCTASGFSFSSSYYMCWVRQAPGKGLEWIACIYAGSSGSTYYASWAKGRFTVSKTSSTTVTLQMTSLTAADTATYFCARYTYGSGSDSYFNLWGPGTLVTVSS VL: AYDMTQTPASVEAAVGGTVTIQCQASQSIGSYLAWYQQKPGQPPKLLIYRASTLSSGVPSRFKGSGSGTQFTLTISDLECADAATYYCQQGYSITNLDNGFGGGTEVVVK",10.3 nM,
